B1: TBC1D4 CTR (TBC1D4 1192-1299) with His6-tag (domain or fragment, human, UniProt O60343 1192-1298, looked up)
chain: SCEDSETLEKLERANSQLKRQNMDLLEKLQVAHTKIQALESNLENLLTRETKMKSLIRTLEQEKMAYQKTVEQLRKLLPADALVNCDLLLRDLNCNPNNKAKIGNKP
B2: TBC1D4 RabGAP-CTR1 (TBC1D4 865-1299) with His6-tag (domain or fragment, human, UniProt O60343 865-1298, looked up)
chain: ASRDELQSRKVKLDYEEVGACQKEVLITWDKKLLNCRAKIRCDMEDIHTLLKEGVPKSRRGEIWQFLALQYRLRHRLPNKQQPPDISYKELLKQLTAQQHAILVDLGRTFPTHPYFSVQLGPGQLSLFNLLKAYSLLDKEVGYCQGISFVAGVLLLHMSEEQAFEMLKFLMYDLGFRKQYRPDMMSLQIQMYQLSRLLHDYHRDLYNHLEENEISPSLYAAPWFLTLFASQFSLGFVARVFDIIFLQGTEVIFKVALSLLSSQETLIMECESFENIVEFLKNTLPDMNTSEMEKIITQVFEMDISKQLHAYEVEYHVLQDELQESSYSCEDSETLEKLERANSQLKRQNMDLLEKLQVAHTKIQALESNLENLLTRETKMKSLIRTLEQEKMAYQKTVEQLRKLLPADALVNCDLLLRDLNCNPNNKAKIGNKP

Biological target: the molecule itself
Assay: AUC

Protein | stoichiometry N
B1 | 2
B2 | 2

From PMC5548637 (International journal of biological macromolecules, 2017)
